Substitutions are numbered along the chain they refer to.
Experiments:
[1] = target: T1, human CD123 (human, UniProt P26951 19-378); test: cell-based or functional assay
[2] = target: T1, human CD123; test: cell-based or functional assay; remark: listed apart in the source
[3] = target: T1, human CD123; test: cell-based or functional assay; remark: listed apart in the source
[4] = target: T1, human CD123; test: cell-based or functional assay; remark: listed apart in the source
[5] = target: T2, human CD123 expressed on cells (human, UniProt P26951 19-378); test: cell-based or functional assay
[6] = target: T2, human CD123 expressed on cells; test: cell-based or functional assay; remark: listed apart in the source
[7] = target: T2, human CD123 expressed on cells; test: cell-based or functional assay; remark: listed apart in the source
[8] = target: T3, cynomolgus CD123 expressed on HEK Flp-In cells (cynomolgus); test: cell-based or functional assay
T3 chain: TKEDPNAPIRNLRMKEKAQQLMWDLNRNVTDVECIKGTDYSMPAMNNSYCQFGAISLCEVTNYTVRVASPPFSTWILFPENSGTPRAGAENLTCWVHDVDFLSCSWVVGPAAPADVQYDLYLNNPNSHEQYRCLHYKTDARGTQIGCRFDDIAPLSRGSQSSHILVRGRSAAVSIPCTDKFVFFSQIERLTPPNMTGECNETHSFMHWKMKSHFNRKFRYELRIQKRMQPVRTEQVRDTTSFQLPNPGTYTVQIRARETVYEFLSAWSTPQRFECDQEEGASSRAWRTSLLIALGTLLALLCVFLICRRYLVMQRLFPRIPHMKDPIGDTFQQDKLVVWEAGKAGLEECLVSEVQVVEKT

[9] = target: T2, human CD123 expressed on cells; test: flow cytometry competition, MOLM-13 cells, competitor A0110056A10-Alexa647 (0.4 nM)
Protocol: (§1) Next to binding to the MOLM-13 and CHO Flp-In huCD123 cells, binding to cyno CD123 transfected HEK Flp-In cells was assessed.

[10] = target: cynomolgus TCR/CD3 expressed on cells (cynomolgus); test: cell-based or functional assay
[11] = target: T2, human CD123 expressed on cells; test: cell-based or functional assay; remark: listed apart in the source
[12] = target: T2, human CD123 expressed on cells; test: cell-based or functional assay; remark: listed apart in the source
[13] = target: T2, human CD123 expressed on cells; test: cell-based or functional assay; remark: listed apart in the source
[14] = target: T4, cynomolgus TCR/CD3 expressed on cells (cynomolgus); test: flow cytometry competition, HSC-F cells, competitor T017000099 (500 nM)
T4 construct: whole, on cells; Native complex with CD3 chains; the cell type is named under assay or readout; also called cyno TCR/CD3; CD3/TCR expressed on HSC-F
Protocol: Cells were washed and incubated with Propidium Iodine to stain for dead cells, which are then removed during the gating procedure. The cells were then analysed via a BD FACSArray. First a P1 population which represented more than 80% of the total cell population was selected based on FSC-SSC distribution. In this gate, 10000 cells were counted during acquisition. From this population the PI+ cells (dead cells) were excluded and the median APC value was calculated.

[15] = target: T2, human CD123 expressed on cells; test: cell-based or functional assay; remark: listed apart in the source
[16] = target: T4, cynomolgus TCR/CD3 expressed on cells; test: cell-based or functional assay; remark: listed apart in the source
[17] = target: T2, human CD123 expressed on cells; test: cell-based or functional assay; remark: listed apart in the source
[18] = target: T2, human CD123 expressed on cells; test: cell-based or functional assay; remark: listed apart in the source
[19] = target: T4, cynomolgus TCR/CD3 expressed on cells; test: cell-based or functional assay; remark: listed apart in the source
[20] = target: T3, cynomolgus CD123 expressed on HEK …; test: flow cytometry competition, HEK Flp-In cyCD123 cells, competitor A0110056A10-Alexa647 (0.9 nM)
Protocol: as §1

[21] = target: T2, human CD123 expressed on cells; test: flow cytometry competition, CHO Flp-In huCD123 cells, competitor A0110056A10-Alexa647 (0.9 nM)
Protocol: as §1

[22] = target: T5, soluble recombinant cynomolgus TCR α/β-zipper protein (cynomolgus/rhesus monkey); test: BLI (Octet RED384), cynomolgus TCR-zipper protein immobilized
T5 construct: Made in house in CHOK1SV cells; also called recombinant cynomolgus soluble TCRα/β-zipper protein; cynomolgus/rhesus monkey TCR α/β; not shown: the zipper protein (O'Shea et al. 1993) fused C-terminally to each chain, and any linker to it
T5 alpha: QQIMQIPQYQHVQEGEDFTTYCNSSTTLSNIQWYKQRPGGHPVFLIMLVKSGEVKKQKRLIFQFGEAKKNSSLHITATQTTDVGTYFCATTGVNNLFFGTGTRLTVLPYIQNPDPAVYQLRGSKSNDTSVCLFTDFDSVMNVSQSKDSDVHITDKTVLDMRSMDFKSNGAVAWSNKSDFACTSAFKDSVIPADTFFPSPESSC
T5 beta: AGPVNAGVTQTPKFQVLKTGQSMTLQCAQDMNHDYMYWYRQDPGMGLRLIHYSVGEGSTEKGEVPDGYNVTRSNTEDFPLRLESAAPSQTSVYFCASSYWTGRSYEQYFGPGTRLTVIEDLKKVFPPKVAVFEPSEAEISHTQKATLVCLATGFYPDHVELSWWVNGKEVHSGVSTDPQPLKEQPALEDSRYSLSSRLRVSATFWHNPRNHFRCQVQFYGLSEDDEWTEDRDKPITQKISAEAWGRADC
Protocol: Binding affinities were measured using Bio-Layer Interferometry (BLI) on an Octet RED384 instrument (Pall ForteBio Corp.). […] For kinetic analysis, sensors were first dipped into running buffer (10 mM Hepes, 150 mM NaCl, 0.05% p20, pH7.4 from GE Healthcare Life Sciences) to determine baseline setting. […] Affinity constants (KD) were calculated applying a 1:1 interaction model using the ForteBio Data Analysis software.

[23] = target: T6, human CD3 expressed on HEK293H cells (human, UniProt P04234 22-171; P09693 23-182; P07766 23-207; P20963 22-164); test: flow cytometry, HEK293H human CD3 cells
T6 construct: also called HEK293H CD3; HEK293H human CD3
From the text: The parental HEK293H cell line was included as TCR/CD3 negative cell line.

[24] = target: T7, human TCR/CD3 on purified primary human T cells (human, UniProt P01848 1-140; P01850 1-176); test: flow cytometry, purified primary human T cells
T7 construct: whole, on cells; Native TCR alpha/beta with the CD3 chains on T cells isolated from buffy coat blood; also called purified primary T cells
Protocol: Dose-dependent binding of the purified monovalent anti-TCR Nanobodies to human TCRα/β (2XN9)/CD3 expressed on CHO-K1 cells and to purified primary human T cells was evaluated by flow cytometry. In brief, cells were harvested and transferred to a V-bottom 96-well plate (1×10⁵ cells/well) and serial dilutions of Nanobodies (starting from 1 pM) were allowed to associate for 30 minutes at 4° C. in FACS buffer. […] After incubation, cells were washed 3 times with FACS Buffer. Subsequently, cells were resuspended in FACS buffer supplemented with 5 nM TOPRO3 (Molecular Probes, T3605) to distinguish live from dead cells, which are removed during the gating procedure. Cells were analysed using a FACS Array flow cytometer (BD Biosciences) and Flowing Software. First a P1 population which represented more than 80% of the total cell population was selected based on FSC-SSC distribution. In this gate, 10000 cells were counted during acquisition. From this population the TOPRO+ cells (dead cells) were excluded and the median PE value was calculated.

[25] = target: T5, soluble recombinant cynomolgus TCR …; test: ELISA, directly coated soluble cynomolgus TCR-zipper protein
Protocol: Quality of the TCR α/β zipper proteins was assessed in an ELISA binding assay. […] After an overnight incubation, plates were washed and blocked with PBS+1% casein for 1 h at room temperature. […] The reaction was stopped with 2M H₂SO₄ and the dose dependent binding was determined by measuring the OD at 450 nm using the Tecan sunrise 4 (FIG. 2).

T2 sequence (P26951 19-378 limits assumed): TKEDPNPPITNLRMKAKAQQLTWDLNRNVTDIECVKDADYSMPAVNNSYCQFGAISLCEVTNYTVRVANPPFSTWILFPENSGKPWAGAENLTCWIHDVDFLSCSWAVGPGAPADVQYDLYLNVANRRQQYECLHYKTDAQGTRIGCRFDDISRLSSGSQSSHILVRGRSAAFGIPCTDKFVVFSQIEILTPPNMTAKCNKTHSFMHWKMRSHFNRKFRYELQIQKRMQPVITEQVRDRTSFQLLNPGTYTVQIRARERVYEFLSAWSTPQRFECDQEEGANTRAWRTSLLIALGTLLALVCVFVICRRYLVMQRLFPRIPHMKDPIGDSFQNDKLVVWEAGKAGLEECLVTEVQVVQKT
T1 sequence (P26951 19-378 limits assumed): as above
T6 sequence (P04234 22-171 limits assumed, chain 1 of 4): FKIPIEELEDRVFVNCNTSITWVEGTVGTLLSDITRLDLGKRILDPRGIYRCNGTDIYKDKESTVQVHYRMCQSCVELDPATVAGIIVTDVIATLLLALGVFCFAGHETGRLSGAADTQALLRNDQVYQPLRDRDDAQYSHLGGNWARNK
T6 sequence (P09693 23-182 limits assumed, chain 2 of 4): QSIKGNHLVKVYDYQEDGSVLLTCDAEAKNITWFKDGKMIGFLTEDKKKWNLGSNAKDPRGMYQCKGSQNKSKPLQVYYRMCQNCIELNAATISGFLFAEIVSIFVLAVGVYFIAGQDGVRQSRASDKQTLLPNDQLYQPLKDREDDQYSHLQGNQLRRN
T6 sequence (P07766 23-207 limits assumed, chain 3 of 4): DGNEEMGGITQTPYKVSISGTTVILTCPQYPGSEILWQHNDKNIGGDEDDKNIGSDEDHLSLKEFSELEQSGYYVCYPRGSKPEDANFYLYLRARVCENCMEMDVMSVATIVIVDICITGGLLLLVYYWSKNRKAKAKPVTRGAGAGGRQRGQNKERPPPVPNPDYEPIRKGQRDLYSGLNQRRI
T6 sequence (P20963 22-164 limits assumed, chain 4 of 4): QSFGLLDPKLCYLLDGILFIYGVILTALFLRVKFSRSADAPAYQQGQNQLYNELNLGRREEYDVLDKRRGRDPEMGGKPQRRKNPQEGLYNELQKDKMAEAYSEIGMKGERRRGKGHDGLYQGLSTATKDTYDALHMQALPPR
T7 sequence (P01848 whole entry, chain 1 of 2): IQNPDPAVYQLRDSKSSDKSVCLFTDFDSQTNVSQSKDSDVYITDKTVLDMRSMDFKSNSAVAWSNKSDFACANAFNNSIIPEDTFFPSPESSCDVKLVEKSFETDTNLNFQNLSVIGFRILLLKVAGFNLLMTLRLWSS
T7 sequence (P01850 whole entry, chain 2 of 2): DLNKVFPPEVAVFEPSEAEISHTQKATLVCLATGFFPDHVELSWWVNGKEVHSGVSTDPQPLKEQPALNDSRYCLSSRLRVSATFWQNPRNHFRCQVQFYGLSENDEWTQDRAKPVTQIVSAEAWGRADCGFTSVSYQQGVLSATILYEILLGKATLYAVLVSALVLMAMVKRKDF

B1: T017000139 (bispecific antibody)
chain: DVQLVESGGGLVQPGGSLRLSCVASGDVHKINFLGWYRQAPGKEREKVAHISIGDQTDYADSAKGRFTISRDESKNMVYLQMNSLKPEDTAVYFCRAFSRIYPYDYWGQGTLVTVSSGGGGSGGGGSGGGGSGGGGSGGGGSGGGGSGGGGSEVQLVESGGGLVQAGGPLRLSCAASGRTFSSYVMGWFRQAPGKEREFVAAIYWSNGKTQYTDSVKGRFTISGDNAKNTVYLQMNSLNPEDTAVYYCVADKDETGFRTLPIAYDYWGQGTLVTVSSGGGGSGGGGSGGGGSGGGGSGGGGSGGGGSGGGGSEVQLVESGGGLVQAGGSLRLSCAASGITSKINDMGWYRQTPGNYREWVASITATGTTNYRDSVKGRFTISRDNAKSTVYLQMNSLKPEDTTVYYCNTFPPISNFWGQGTLVTVSSA
With B1 the “EC50 (M), redirected cynomolgus T cell mediated killing of MOLM-13 cells, flow cytometry, E:T 10:1” value [1] was 2.9e-11 M, the “EC50 (M), redirected human T cell mediated killing of MOLM-13 cells, flow cytometry, E:T 10:1” value [1] was 2e-11 M and the “EC50 (M), human IFN-γ secretion during redirected human T cell mediated killing of CD123 positive MOLM-13 cells (ELISA)” value [2] was 3.4e-10 M. For the same binder, the “EC50 (M), human IL-6 secretion during redirected human T cell mediated killing of CD123 positive MOLM-13 cells (ELISA)” value [3] was 2.3e-11 M, the “% lysis, redirected cynomolgus T cell mediated killing of KG1a cells, flow cytometry, E:T 10:1” value [4] was 34% and the “% lysis, redirected human T cell mediated killing of KG1a cells, flow cytometry, E:T 10:1” value [4] was 67%. The “EC50 (M), redirected cynomolgus T cell mediated killing of KG1a cells, flow cytometry, E:T 10:1” value [4] was 1.7e-11 M and the “EC50 (M), redirected human T cell mediated killing of KG1a cells, flow cytometry, E:T 10:1” value [4] was 8.1e-11 M.

B2: T017000139 (bispecific antibody)
chain: B1 chain
notes: Multispecific Nanobody polypeptide expressed in Pichia; also called T013700139
B2 was tested, and the “IC50 (M), redirected human T cell mediated killing of human CD123 transfected CHO Flp-In cells, xCELLigence, E:T 15:1, 50 h” value [5] was 2.4e-10 M, the “EC50 (M), IFN-γ secretion by cynomolgus T cells during killing of CD123 transfected adherent target cells” value [6] was 2.3e-09 M and the “EC50 (M), IFN-γ secretion by human T cells during killing of CD123 transfected adherent target cells” value [6] was 1e-09 M. The “% lysis, redirected human T cell mediated killing of KG1a cells, flow cytometry, E:T 10:1” value [7] was 27%, the “EC50 (M), redirected human T cell mediated killing of KG1a cells, flow cytometry, E:T 10:1” value [7] was 1.1e-10 M and the “IC50 (M), redirected cynomolgus T cell mediated killing of cynomolgus CD123 transfected HEK Flp-In cells, xCELLigence, E:T 15:1, 80 h” value [8] was 1.1e-11 M. For the same binder, the IC50 [9] was 3.7 nM, the “% lysis, redirected cyno T cell mediated killing of KG1a cells, flow cytometry” value [10] was 42% and the “EC50 (M), redirected cyno T cell mediated killing of KG1a cells, flow cytometry” value [10] was 2.6e-11 M. The “EC50 (M), human IL-6 secretion during human T cell mediated killing of CD123 transfected adherent target cells” value [11] was 4.8e-10 M, the “EC50 (M), redirected cynomolgus T cell mediated killing of CD123 positive KG1a cells, flow cytometry, E:T 10:1” value [12] was 1.7e-11 M and the “EC50 (M), redirected human T cell mediated killing of CD123 positive KG1a cells, flow cytometry, E:T 10:1” value [12] was 8.1e-11 M. For the same binder, the “EC50 (M), redirected cynomolgus T cell mediated killing of CD123 positive MOLM-13 cells, flow cytometry, Experiment 1” value [13] was 6e-11 M, the “EC50 (M), redirected cynomolgus T cell mediated killing of CD123 positive MOLM-13 cells, flow cytometry, Experiment 2” value [13] was 3.1e-11 M and the “EC50 (M), redirected human T cell mediated killing of CD123 positive MOLM-13 cells, flow cytometry, Experiment 2” value [13] was 3e-11 M. The IC50 [14] was 640 nM, the “% lysis, redirected human T cell mediated killing of MOLM-13 cells, flow cytometry, E:T 10:1” value [15] was 29% and the “EC50 (M), redirected human T cell mediated killing of MOLM-13 cells, flow cytometry, E:T 10:1” value [15] was 2e-11 M. The “EC50 (M) of CD25 upregulation on cynomolgus T cells during redirected killing of MOLM-13 cells, 72 h” value [16] was 6e-11 M, the “EC50 (M), human IFN-γ secretion during human T cell mediated killing of KG1a cells” value [17] was 3.2e-11 M and the “EC50 (M), human IFN-γ secretion during human T cell mediated killing of MOLM-13 cells” value [17] was 3.4e-10 M. The “EC50 (M), human IL-6 secretion during human T cell mediated killing of MOLM-13 cells” value [18] was 2.3e-11 M, the “% lysis, redirected cyno T cell mediated killing of MOLM-13 cells, flow cytometry, E:T 10:1” value [19] was 55% and the “EC50 (M), redirected cyno T cell mediated killing of MOLM-13 cells, flow cytometry, E:T 10:1” value [19] was 1.1e-11 M. The IC50 [20] was 11 nM and the IC50 [21] was 3.3 nM.

B3: T0170055A02 (VHH)
VHH: EVQLVESGGGLVQPGGSLRLSCAASGDVHKINILGWYRQAPAKEREMVAHITIGDATDYADSAKGRFTISRDEAKNMVYLQMNSLKPEDTAVYFCRAYSRIYPYNYWGQGTLVTVSS
notes: also called T0170PMP055A02; T01700055A02; not shown: C-terminal triple Flag, His6 tag
With B3 the Kd [22] was 210 nM, the binding result [23] was “no binding (tested: 1e-6 M)” and the EC50 [24] was 91 nM. The EC50 [25] was 160 nM.

B4: T0170056G05 (VHH)
VHH: B3 VHH with A23V, I33F, A42G, M47K, T52S, A56Q, A74S, Y98F, N105D
notes: Monovalent anti-TCR Nanobody; also called T0170PMP056G05; T01700056G05; not shown: C-terminal triple Flag, His6 tag
With B4 the Kd [22] was 150 nM, the binding result [23] was “no binding (tested: 1e-6 M)” and the EC50 [24] was 91 nM. For the same binder, the EC50 [25] was 77 nM.
